From the RNAGym collection of RNA variant scans (doi:10.1093/nar/gkz1192)

B1: CPEB3 Ribozyme (parent)
chain: UAACAGGGGGCCACAGCAGAAGCGUUCACGUCGCAGCCCCUGUCAGAUUCUGGUGAAUCUGCGAAUUCUGCUGUAUAUCUC

Variants of: B1
Assay: self-cleavage, relative activity (ratio to wild type); higher = more cleavage; in vitro, sequencing
How it was run: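 Barcoded CPEB3 ribozyme mutants, produced by rounds of error-prone PCR, self-cleaved while being transcribed with T7 RNA polymerase for 5 hours at 37°C and during a subsequent 15 min DNase I step before EDTA was added. Sequencing of template-switched cDNA on Illumina gave cleaved and total reads, and DNA sequencing assigned barcodes to variants. Each variant's relative activity is its cleaved/total read fraction divided by the unmutated ribozyme's fraction, averaged across three batches. A variant needed a minimum of 5 reads.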

Variant	self-cleavage
G30U G70C	0.15
G30U U31C	0.43
G30U U41A	0.16
G30U U41C	0.27
G30U U41G	0.13
G30U U49A	0.35
G30U U49C	0.42
G30U U51A	0.11
G30U U51C	0.16
G30U U54C	0.14
G30U U60C	0.15
G30U U66A	0.13
G30U U69A	0.1
G30U U72A	0.22
G30U U72C	0.08
G30U U72G	0.15
G30U U76A	0.5
G30U U76C	0.39
G30U U78C	0.09
G30U U80C	0.17
U31A	0.56

Variant	self-cleavage
U31A A35C	0.27
U31A A35G	1.25
U31A A35U	0.3
U31A A45G	0.35
U31A A45U	0.32
U31A A47G	0.54
U31A A47U	0.29
U31A A56G	0.48
U31A A56U	0.39
U31A A57G	0.53
U31A A64C	0.14
U31A A64G	0.39
U31A A64U	0.29
U31A A65G	0.36
U31A A65U	0.37
U31A A75G	0.47
U31A A75U	0.61
U31A A77G	0.32
U31A A77U	0.51
U31A C32G	0.12
U31A C32U	0.13

Variant	self-cleavage
U31A C34G	0.2
U31A C34U	0.23
U31A C37U	0.16
U31A C38U	0.53
U31A C39U	0.34
U31A C40U	0.27
U31A C44U	0.23
U31A C50U	0.41
U31A C59A	0.17
U31A C59G	0.19
U31A C59U	0.37
U31A C62A	0.28
U31A C62U	0.26
U31A C68U	0.54
U31A C71A	0.17
U31A C71G	0.19
U31A C71U	0.29
U31A C79U	0.48
U31A C81U	0.58
U31A G33A	0.24
U31A G33U	0.13

Variant	self-cleavage
U31A G36U	0.1
U31A G42A	0.18
U31A G42C	0.53
U31A G46C	0.2
U31A G46U	0.12
U31A G52A	0.69
U31A G52C	0.5
U31A G53A	0.53
U31A G53C	0.51
U31A G55A	0.41
U31A G61A	0.37
U31A G61C	0.24
U31A G63A	0.39
U31A G73A	1.04
U31A G73C	1.08
U31A U41A	0.33
U31A U41C	0.51
U31A U41G	0.29
U31A U43A	0.7
U31A U43C	0.37
